B1: Lysozyme C, P61626 (parent)
chain: MKALIVLGLVLLSVTVQGKVFERCELARTLKRLGMDGYRGISLANWMCLAKWESGYNTRATNYNAGDRSTDYGIFQINSRYWCNDGKTPGAVNACHLSCSALLQDNIADAVACAKRVVRDPQGIRAWVAWRNRCQNRDVRQYVQGCGV

In the first series the parent is B1. Conditions: Homo sapiens; pH 2.38; Thermal; DSC; Gly-HCl 0.05 M; reversible: yes; structure 1LZ1; whole UniProt chain shown.
Regarding MKALIVLGLVLLSVTVQGKVFERCELARTLKRLGMDGYRGISLANWMCLAKWESGYNTRATNYNAGDRSTDYGIFQINSRYWCNDGKTPAAVNACHLSCSALLQDNIADAVACAKRVVRDPQGIRAWVAWRNRCQNRDVRQYVQGCGV [G90A], the Tm came out at 58.2 °C and the “unfolding enthalpy (calorimetric)” value was found to be 99.9 kcal/mol.
For MKALIVLGLVLLSVTVQGKVFERCELARTLKRLGMDGYRGISLANWMCLAKWESAYNTRATNYNAGDRSTDYGIFQINSRYWCNDGKTPGAVNACHLSCSALLQDNIADAVACAKRVVRDPQGIRAWVAWRNRCQNRDVRQYVQGCGV [G55A], the Tm amounted to 58.1 °C and the “unfolding enthalpy (calorimetric)” value worked out at 97 kcal/mol.

Staying with this series, now noted: Homo sapiens; pH 2.64; Thermal; DSC; Gly-HCl 0.05 M; reversible: yes; structure 1LZ1; whole UniProt chain shown.
With MKALIVLGLVLLSVTVQGKVFERCELARTLKRLGMDGYRGISLANWMCLAKWESGYNTRATNYNAGDRSTDYGIFQINSRYWCNDGKTPAAVNACHLSCSALLQDNIADAVACAKRVVRDPQGIRAWVAWRNRCQNRDVRQYVQGCGV [G90A], the Tm came to 62.6 °C and the “unfolding enthalpy (calorimetric)” value amounted to 106 kcal/mol.

Staying with this series, now noted: Homo sapiens; pH 2.7; 64.9 °C; Thermal; DSC; Gly-HCl 0.05 M; reversible: yes; structure 1LZ1; whole UniProt chain shown.
Regarding MKALIVLGLVLLSVTVQGKVFERCELARTLKRLGMDGYRGISLANWMCLAKWESGYNTRATNYNAGDRSTDYGIFQINSRYWCNDGKTPAAVNACHLSCSALLQDNIADAVACAKRVVRDPQGIRAWVAWRNRCQNRDVRQYVQGCGV [G90A], the “ddG of mutation (higher = less stable)” value came to 0.36 kcal/mol and the “heat capacity change of unfolding” value amounted to 1.43 kcal/mol/K.
For MKALIVLGLVLLSVTVQGKVFERCELARTLKRLGMDGYRGISLANWMCLAKWESGYNTRATNYNAGDRSTDYGIFQINSRYWCNDGKTPGAVNACHLSCSALLQDNIADAVACAKRVVRDPQAIRAWVAWRNRCQNRDVRQYVQGCGV [G123A], in that order: 0.62 kcal/mol and 1.36 kcal/mol/K.
Regarding MKALIVLGLVLLSVTVQGKVFERCELARTLKRLGMDGYRGISLANWMCLAKWESGYNTRATNYNAADRSTDYGIFQINSRYWCNDGKTPGAVNACHLSCSALLQDNIADAVACAKRVVRDPQGIRAWVAWRNRCQNRDVRQYVQGCGV [G66A], the “ddG of mutation (higher = less stable)” value was -0.45 kcal/mol and the “heat capacity change of unfolding” value came out at 1.6 kcal/mol/K.

The series is the same for the next values; noted with them: Homo sapiens; pH 2.7; Thermal; DSC; Gly-HCl 0.05 M; reversible: yes; structure 1LZ1; whole UniProt chain shown.
For MKALIVLGLVLLSVTVQGKVFERCELARTLKRLGMDGYRGISLANWMCLAKWESGYNTRATNYNAGDRSTDYGIFQINSRYWCNDGKTPAAVNACHLSCSALLQDNIADAVACAKRVVRDPQGIRAWVAWRNRCQNRDVRQYVQGCGV [G90A], the Tm stood at 63.8 °C; the “change of melting temperature, mutant - wild type (higher = more stable)” value is -1.1 °C; the “heat capacity change of unfolding” value was determined as 1.43 kcal/mol/K; the “unfolding enthalpy (calorimetric)” value amounted to 109 kcal/mol.
For MKALIVLGLVLLSVTVQGKVFERCELARTLKRLGMDGYRGISLANWMCLAKWESGYNTRATNYNAGDRSTDYGIFQINSRYWCNDGKTPGAVNACHLSCSALLQDNIADAVACAKRVVRDPQAIRAWVAWRNRCQNRDVRQYVQGCGV [G123A], in that order: 62.8 °C, -2.1 °C, 1.36 kcal/mol/K and 103 kcal/mol.
For the variant MKALIVLGLVLLSVTVQGKVFERCELARTLKRLGMDGYRGISLANWMCLAKWESAYNTRATNYNAGDRSTDYGIFQINSRYWCNDGKTPGAVNACHLSCSALLQDNIADAVACAKRVVRDPQGIRAWVAWRNRCQNRDVRQYVQGCGV [G55A], the Tm came to 64 °C; the “change of melting temperature, mutant - wild type (higher = more stable)” value was -0.9 °C; the “heat capacity change of unfolding” value came to 1.53 kcal/mol/K; the “unfolding enthalpy (calorimetric)” value was found to be 108 kcal/mol.
The matching figures for MKALIVLGLVLLSVTVQGKVFERCELARTLKRLGMDGYRGISLANWMCLAKWESGYNTRATNYNAADRSTDYGIFQINSRYWCNDGKTPGAVNACHLSCSALLQDNIADAVACAKRVVRDPQGIRAWVAWRNRCQNRDVRQYVQGCGV [G66A]: 66.4 °C, 1.5 °C, 1.6 kcal/mol/K and 101 kcal/mol.

The same series, now with this note: Homo sapiens; pH 3.16; Thermal; DSC; Gly-HCl 0.05 M; reversible: yes; structure 1LZ1; whole UniProt chain shown.
Consider MKALIVLGLVLLSVTVQGKVFERCELARTLKRLGMDGYRGISLANWMCLAKWESGYNTRATNYNAGDRSTDYGIFQINSRYWCNDGKTPAAVNACHLSCSALLQDNIADAVACAKRVVRDPQGIRAWVAWRNRCQNRDVRQYVQGCGV [G90A], for which the Tm was determined as 72.2 °C and the “unfolding enthalpy (calorimetric)” value turned out to be 120 kcal/mol.
With MKALIVLGLVLLSVTVQGKVFERCELARTLKRLGMDGYRGISLANWMCLAKWESGYNTRATNYNAGDRSTDYGIFQINSRYWCNDGKTPGAVNACHLSCSALLQDNIADAVACAKRVVRDPQGIRAWVAWRNRCQNRDVRQYVQACGV [G145A], the Tm is 71.1 °C and the “unfolding enthalpy (calorimetric)” value stood at 118 kcal/mol.

Staying with this series, now noted: Homo sapiens; pH 2.3; Thermal; DSC; Gly-HCl 0.05 M; reversible: yes; structure 1LZ1; whole UniProt chain shown.
Take MKALIVLGLVLLSVTVQGKVFERCELARTLKRLGMDGYRGISLANWMCLAKWESGYNTRATNYNAGDRSTDYGIFQINSRYWCNDGKTPGAVNACHLSCSALLQDNIADAVACAKRVVRDPQAIRAWVAWRNRCQNRDVRQYVQGCGV [G123A]: the Tm was found to be 56.1 °C and the “unfolding enthalpy (calorimetric)” value amounted to 90.8 kcal/mol.

The same series, now with this note: Homo sapiens; pH 2.65; Thermal; DSC; Gly-HCl 0.05 M; reversible: yes; structure 1LZ1; whole UniProt chain shown.
Turning to MKALIVLGLVLLSVTVQGKVFERCELARTLKRLGMDGYRGISLANWMCLAKWESGYNTRATNYNAGDRSTDYGIFQINSRYWCNDGKTPGAVNACHLSCSALLQDNIADAVACAKRVVRDPQAIRAWVAWRNRCQNRDVRQYVQGCGV [G123A], the Tm is 61.3 °C and the “unfolding enthalpy (calorimetric)” value turned out to be 97.5 kcal/mol.

Staying with this series, now noted: Homo sapiens; pH 3.2; Thermal; DSC; Gly-HCl 0.05 M; reversible: yes; structure 1LZ1; whole UniProt chain shown.
With MKALIVLGLVLLSVTVQGKVFERCELARTLKRLGMDGYRGISLANWMCLAKWESGYNTRATNYNAGDRSTDYGIFQINSRYWCNDGKTPGAVNACHLSCSALLQDNIADAVACAKRVVRDPQAIRAWVAWRNRCQNRDVRQYVQGCGV [G123A], the Tm was found to be 71.8 °C and the “unfolding enthalpy (calorimetric)” value came out at 112 kcal/mol.
The matching figures for MKALIVLGLVLLSVTVQGKVFERCELARTLKRLGMDGYRGISLANWMCLAKWESGYNTRATNYNAADRSTDYGIFQINSRYWCNDGKTPGAVNACHLSCSALLQDNIADAVACAKRVVRDPQGIRAWVAWRNRCQNRDVRQYVQGCGV [G66A]: 75.1 °C and 117 kcal/mol.

Staying with this series, now noted: Homo sapiens; pH 2.6; Thermal; DSC; Gly-HCl 0.05 M; reversible: yes; structure 1LZ1; whole UniProt chain shown.
Consider MKALIVLGLVLLSVTVQGKVFERCELARTLKRLGMDGYRGISLANWMCLAKWESAYNTRATNYNAGDRSTDYGIFQINSRYWCNDGKTPGAVNACHLSCSALLQDNIADAVACAKRVVRDPQGIRAWVAWRNRCQNRDVRQYVQGCGV [G55A], for which the melting temperature (Tm) was 62.4 °C and the “unfolding enthalpy (calorimetric)” value came out at 104 kcal/mol.
The matching figures for MKALIVLGLVLLSVTVQGKVFERCELARTLKRLGMDGYRGISLANWMCLAKWESGYNTRATNYNAGDRSTDYGIFQINSRYWCNDGKTPGAVNACHLSCSALLQDNIADAVACAKRVVRDPQGIRAWVAWRNRCQNRDVRQYVQACGV [G145A]: 61.6 °C and 104 kcal/mol.

The same series, now with this note: Homo sapiens; pH 3.18; Thermal; DSC; Gly-HCl 0.05 M; reversible: yes; structure 1LZ1; whole UniProt chain shown.
As for MKALIVLGLVLLSVTVQGKVFERCELARTLKRLGMDGYRGISLANWMCLAKWESAYNTRATNYNAGDRSTDYGIFQINSRYWCNDGKTPGAVNACHLSCSALLQDNIADAVACAKRVVRDPQGIRAWVAWRNRCQNRDVRQYVQGCGV [G55A], the midpoint of thermal melting (Tm) was determined as 72.4 °C and the “unfolding enthalpy (calorimetric)” value came to 119 kcal/mol.

The same series, now with this note: Homo sapiens; pH 2.2; Thermal; DSC; Gly-HCl 0.05 M; reversible: yes; structure 1LZ1; whole UniProt chain shown.
For MKALIVLGLVLLSVTVQGKVFERCELARTLKRLGMDGYRGISLANWMCLAKWESGYNTRATNYNAGDRSTDYGIFQINSRYWCNDGKTPGAVNACHLSCSALLQDNIADAVACAKRVVRDPQGIRAWVAWRNRCQNRDVRQYVQACGV [G145A], the midpoint of thermal melting (Tm) is 54.6 °C and the “unfolding enthalpy (calorimetric)” value stood at 94.2 kcal/mol.

Still in this series, the particulars now being: Homo sapiens; pH 2.4; Thermal; DSC; Gly-HCl 0.05 M; reversible: yes; structure 1LZ1; whole UniProt chain shown.
As for MKALIVLGLVLLSVTVQGKVFERCELARTLKRLGMDGYRGISLANWMCLAKWESGYNTRATNYNAADRSTDYGIFQINSRYWCNDGKTPGAVNACHLSCSALLQDNIADAVACAKRVVRDPQGIRAWVAWRNRCQNRDVRQYVQGCGV [G66A], the Tm turned out to be 61.1 °C and the “unfolding enthalpy (calorimetric)” value was 94.9 kcal/mol.

The series is the same for the next values; noted with them: Homo sapiens; pH 2.68; Thermal; DSC; Gly-HCl 0.05 M; reversible: yes; structure 1LZ1; whole UniProt chain shown.
As for MKALIVLGLVLLSVTVQGKVFERCELARTLKRLGMDGYRGISLANWMCLAKWESGYNTRATNYNAADRSTDYGIFQINSRYWCNDGKTPGAVNACHLSCSALLQDNIADAVACAKRVVRDPQGIRAWVAWRNRCQNRDVRQYVQGCGV [G66A], the Tm is 66 °C and the “unfolding enthalpy (calorimetric)” value turned out to be 102 kcal/mol.

(Values after FireProtDB (doi:10.1002/prot.1147).)
